Data taken from the nanobody polyreactivity screen of Harvey et al. (2022).

Test: yeast display, Sf9 membrane polyspecificity reagent, FACS + sequencing; frameworks hold sequencing errors
Outline: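 Synthetic nanobody libraries on Saccharomyces cerevisiae BJ5465 were galactose-induced for 36–48 hours, stained 1 hour at 4 °C with 10% biotinylated, detergent-solubilized Sf9 membrane reagent and enriched on streptavidin microbeads. FACS then separated cells into low and high (top ~1%) gates by anti-HA (expression) and streptavidin (reagent binding) fluorescence. Genes were colony-PCR amplified, MiSeq 2 × 250 sequenced and CDR-length filtered. A clone's polyreactivity label is that of its gate of origin.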

Sequence | polyreactivity (PSR sort gate)
QVQLVESGGGLVQAGGSLRLSCAASGRIFRYNTMGWYRQAPGKERELVAAINSSGGRTYYADSVKGRFTISRDNAKNTVYLQMNSLKPEDTSVYYCAAVIYVLSGPGYDYWGQGTQVTVSS | high polyreactivity
QVQLVESGGGLVQAGGSLRLSCAASGRIFRYNTMGWYRQAPGKERELVASITYRGGSTYYADSVKGRFTISRDNAKNTVYLQMNSLKPEDTAVYYCAASPARYWYGGKEYDYWGQGTQVTVSS | high polyreactivity
QVQLVESGGGLVQAGGSLRLSCAASGRIFRYYAIGWYRQAPGKERELVAAISKSGGGTFYADSVKGRFTISRDNAKNTVYLQMNSLKPEDTAVYYCAARDKGLGKHDYWGQGTQVTVSS | low polyreactivity
QVQLVESGGGLVQAGGSLRLSCAASGRIFRYYAMGWYGQAPGKEREFVAAINSSGVNTYYADSVKGRFTISRDNAKNTVYLQMNSLKPEDTAVYYCAFLGMDYWGQGTQVTVSS | high polyreactivity
QVQLVESGGGLVQAGGSLRLSCAASGRIFRYYAMGWYRPAPGKERELVAGISSRGGSTYYADSVKGRFTISRDNAKNTVYLQMNSLKPEDTAVYYCAASPFHTVTPYGVVGRYDYWGQGTQVTVSS | high polyreactivity
QVQLVESGGGLVQAGGSLRLSCAASGRIFRYYAMGWYRQAPGKDRELVAAIRSASSTYYADSVKGRFTISRDNAKNTVYVQMNSLKPEDTAVSYCAARLYGVYKRRYYYWGQGTQVTVSS | high polyreactivity
QVQLVESGGGLVQAGGSLRLSCAASGRIFRYYAMGWYRQAPGKERELVAAINTSTGSTYYADSVKGRFTISRDNAKNTVYLQMNSLKPEDTAVYYCATGWHYYRSLRGGLAWPGGYWGQGTQVTVSS | high polyreactivity
QVQLVESGGGLVQAGGSLRLSCAASGRIFRYYAMGWYRQAPGKERELVAAIRYRSGGTYYADSVKGRFTISRDNAKNTVYLQMNCLKPEDTAVYYCNADKRLRGHGYDYWGQGTQVTVSS | high polyreactivity
QVQLVESGGGLVQAGGSLRLSCAASGRIFRYYAMGWYRQAPGKERELVAAISSGGSTNYADSVKGRFTISRDNAKNTVYIQMNSLKPEDTPVYYCAAEWYSYGARSSYGGSRNDYWGQGTQVTVSS | low polyreactivity
QVQLVESGGGLVQAGGSLRLSCAASGRIFRYYAMGWYRQAPGKERELVAAISWSGSSTYYADSVKGRFTISRDNAKNTVFLQMNSLKPEDTAVYYCDALILSKSEYYWGQGTQVSVSS | high polyreactivity
QVQLVESGGGLVQAGGSLRLSCAASGRIFRYYAMGWYRQAPGKERELVATITASSGSTYYADSVKGRFTISRDNAKNTVYLQMNSLKPEDTAVYYCAAGFVYRPGSFIRFDYWGQGTQVTVSS | high polyreactivity
QVQLVESGGGLVQAGGSLRLSCAASGRIFRYYAMGWYRQAPGKERELVATITSSGGSTFYADSVKGRFTISRDNAKNTVYLQMNSLKPEDTAVYYCAASRASRYFPYDYWGQGTQVTVSS | high polyreactivity
QVQLVESGGGLVQAGGSLRLSCAASGRIFRYYAMGWYRQATGKERELVASISSGGSTNYADSVKGRCTISRDNAKNTVYLQMNSLKPEDTAVYYCNAVLCFRAVYEYDYWGQGTQVTVSS | high polyreactivity
QVQLVESGGGLVQAGGSLRLSCAASGRIFRYYARGWYRQAPGKEMELVAAISGSGGSTYYADSVKGRFTISRDNAQKTVYLQIHCLKPEDTAVYSCNARYRIPSGEGDHWGQGTQVTVSS | low polyreactivity
QVQLVESGGGLVQAGGSLRLSCAASGRIFRYYVMGWYRQAPGKETELVAAISRSGGTTYYADSVKGRFTISRDNAKNTVYLQMNSLKPEDTAVYYCAAVYGRDPGDYWGQGTQVTVSS | high polyreactivity
QVQLVESGGGLVQAGGSLRLSCAASGRIFSAYAMGGYRQAPGKGRELVAAISYSGGSTYYADSVKGRFTISRDNAKNTVYLQMNSLKPEDTAVYYCAASGPRWWRFGYWGQGTQVTVSS | low polyreactivity
QVQLVESGGGLVQAGGSLRLSCAASGRIFSAYAMGWYRQAPGKERELVAAISKRGGRTYYADSVKGRFTISRDNAKNTVYLQMNSLKPEDTAVYYCNKRYHDGHELDYWGQGTQVTVSS | high polyreactivity
QVQLVESGGGLVQAGGSLRLSCAASGRIFSAYAMGWYRQAPGKERELVAAITSVGSTKYADSVKGLFTISRDNAKNTVYLQMNSLKPEDTAVYYCAAEYTRSFYIYYRFGYWGQGTQVTVSS | high polyreactivity
QVQLVESGGGLVQAGGSLRLSCAASGRIFSAYAMGWYRQAPGKERELVAVISRRGGRTYYADSVKGRFTISRDNAKNTVYLQMNSLKPEDTAVYYCAALGRRTRLYYWGQGTQVTVSS | high polyreactivity
QVQLVESGGGLVQAGGSLRLSCAASGRIFSDNAMGWYRQAPGKERELVATINYSGGSTYYADSVKGRFTISRDNAKNTVYLQMNSLKPEDTAVYYCATRIPHRINYYDYDYWGQGTQVTVSS | low polyreactivity
QVQLVESGGGLVQAGGSLRLSCAASGRIFSDYAMGWYRQAPGKERELVATITSGDSTNYADSVKGRFTISRDNAKNTVYLQMNSLKTEDTAVYYCNADRFADYDYWGQGTQVTVSS | low polyreactivity

Sequence | polyreactivity (PSR sort gate)
QVQLVESGGGLVQAGGSLRLSCAASGRIFSENAMGWYRQAPGKERELVAAITGNGGDTYYADSVKGRFTISRDNAKNTVYLQMNSLKPEDTAVYYCAAETGGLGGDYWGQGTQVTVSS | low polyreactivity
QVQLVESGGGLVQAGGSLRLSCAASGRIFSEYAMGWYRQAPGKERELVAAISGTGGRTYYADSVKGRFTISRDNAKNTVYLQMNSLKPEDTAVYYCAARTGQGPLYNHWGQGTQVTVSS | high polyreactivity
QVQLVESGGGLVQAGGSLRLSCAASGRIFSFNAMGWYRPAPGKERELVATISWNGDSTYADSVKGRFTISRDNAKNTVYLQMNSLKPEDTAVYYCAVDVPPWDYDYWGQGTQVTVSS | low polyreactivity
QVQLVESGGGLVQAGGSLRLSCAASGRIFSFNAMGWYRQAPGKERELVAAISWSTGSTFYADSVKGRFTISRDNAKNTVYVQMNSLKPEDTAFYYCAREYYYRRGFFLRGYWGQGTQVTVSS | high polyreactivity
QVQLVESGGGLVQAGGSLRLSCAASGRIFSFNAMGWYRQAPGKERELVATISWNGDSTYADSVKGRFTISRDNAKNTVYLQMNSLKPEDTAVYYCAVDVPPWDYDYWGQGTQVTVSS | low polyreactivity
QVQLVESGGGLVQAGGSLRLSCAASGRIFSFYAMVWSRQAPGKERELVAAISSGGYTYYADSVKGRFTISRDNAKNTVYLQMNSLKPEDTAVYYCATGYRKLSSRYGYWGQGTQVTVSS | high polyreactivity
QVQLVESGGGLVQAGGSLRLSCAASGRIFSGYAMGWYRQAPGKERELVAAISQRGGSTTYADSVKGRFTISRDNAKNTVYLQMNSLKPEDTAVYYCAKRYTYPSGYDYWGQGTQVTVSS | low polyreactivity
QVQLVESGGGLVQAGGSLRLSCAASGRIFSHNAMGWYRQAPGKERELVASIRSSSGRTYYADSVKGRITISRDNAKNTVYLQMNSLTPEDTAVYYCAARQYSSKPYLYGYNYWGQGTQVTVSS | high polyreactivity
QVQLVESGGGLVQAGGSLRLSCAASGRIFSKYAMGWYRQAPGKERELVAAITYSGGSTYYADSVKGRFTISRDNAKNTVYLQMNSLKPEDTAVYYCAAVHGTSYSKWFGYWGQGTQVTVSS | low polyreactivity
QVQLVESGGGLVQAGGSLRLSCAASGRIFSKYTMGWYIQAPGKEMELVAAISGSGTSTYYADSVKGRFTISRDNAKNTVYLQMNSLKPEDTAVYYCNAVKSWGHPGRYYWGQGTQVTVSS | high polyreactivity
QVQLVESGGGLVQAGGSLRLSCAASGRIFSLNTMGWYRQAPGKERELVATITKRGGNTYYADSVKGRFTISRDNAKNTVYLQMNSLKPEDTAFYYCAVPRSITYRYGYWGQGTQVTVSS | high polyreactivity
QVQLVESGGGLVQAGGSLRLSCAASGRIFSLYAMGWYRQAPGKERELVADITYRGGDSTYYADSVKGRFTISRDNAKNTVYLKMNSLKPEDTAVYYCAAGQPLYQRRHSSRTYYYWGQGTQVTVSS | high polyreactivity
QVQLVESGGGLVQAGGSLRLSCAASGRIFSLYAMGWYRQAPGKERELVAGITWRGGSTYYADSVKGRFTISRDNAKNTVYLQMNSMKPEDTAVYYCAARPWNWRDYDYWGQGTQVTVSS | high polyreactivity
QVQLVESGGGLVQAGGSLRLSCAASGRIFSLYAMGWYRQAPGNERELVAAISKRGGSTYYADSVKGRFTISRDNAKNTVYLHMNSLKPEDTAVYYCATQLPFRKPWHDYWGQGTQVTVSS | high polyreactivity
QVQLVESGGGLVQAGGSLRLSCAASGRIFSNYAMGWYRQAPGKERELVAAITSGGNTYYADSVKGRFTISRDNAKNTVYLQMNSLKPEDTAVYYCATVFSVQGWYFGMNYWGQGSQVTVSS | low polyreactivity
QVQLVESGGGLVQAGGSLRLSCAASGRIFSPSDMGWYRQAPGKERELVAAIRSDGGRTHYADSVKGRFTISRDNAKNTVYLQMNSLKPEDTAVYYCARDNGRTITTTDTYDYWGQGTQVTVSS | low polyreactivity
QVQLVESGGGLVQAGGSLRLSCAASGRIFSPSDMGWYRQAPGKERELVAAIRSDGGRTHYADSVKGRFTISRDNAKNTVYLQMNTLKPEDTAVYYCARDNGRTITTTDTYDYWRQGTQVTVSS | low polyreactivity
QVQLVESGGGLVQAGGSLRLSCAASGRIFSQNAMGWYRQAPGKERELVAVISRGGSTNYADSVKGRFTISRDNAKNTVYLQMNSLKPEDTAVYYCAADYAYIRSVWKWFIGDYWGQGTQVTVSS | low polyreactivity
QVQLVESGGGLVQAGGSLRLSCAASGRIFSQYAMGWYRQAPGKERELVAAISRRTGSTYYADSVKGRFTISRDNAKNTVYLQMNSLKPEDTAVYYCAAASKPWYYYWGQGTQVTVSS | high polyreactivity
QVQLVESGGGLVQAGGSLRLSCAASGRIFSQYAMGWYRQAPGKERELVAAISSRGGRTYYADSVKGRFTISRDNAKNTVYLQMNSLKPEDTAVYYCAAVIRSRYSYYEYDYWGQGTQVTVSS | high polyreactivity
